Laboratory results published in US7071299B2, “Peptide and polypeptide inhibitors of complement C1s” (ZymoGenetics, Inc., priority 2000, dated 2006).
“And” between values parts separate entries of the source, which are not always exact repeats. Equal values may be shown once.

Molecular target: T1, Activated human C1s (Homo sapiens, UniProt P09871)
T1 construct: purchased Calbiochem-Novabiochem Corporation; San Diego, Calif
T1 sequence (P09871 16-437 limits assumed): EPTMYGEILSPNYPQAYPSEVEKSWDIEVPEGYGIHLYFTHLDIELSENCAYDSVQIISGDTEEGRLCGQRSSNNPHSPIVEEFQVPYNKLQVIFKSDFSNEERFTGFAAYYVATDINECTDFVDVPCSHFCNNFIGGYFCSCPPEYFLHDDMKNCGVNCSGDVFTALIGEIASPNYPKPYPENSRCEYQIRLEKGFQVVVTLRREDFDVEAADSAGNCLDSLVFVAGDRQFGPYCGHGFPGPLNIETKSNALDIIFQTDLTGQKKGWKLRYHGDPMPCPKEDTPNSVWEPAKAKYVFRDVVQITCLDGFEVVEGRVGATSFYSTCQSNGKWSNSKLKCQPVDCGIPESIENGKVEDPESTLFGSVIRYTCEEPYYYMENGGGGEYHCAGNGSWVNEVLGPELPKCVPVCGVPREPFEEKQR
T1 sequence (P09871 438-688 limits assumed): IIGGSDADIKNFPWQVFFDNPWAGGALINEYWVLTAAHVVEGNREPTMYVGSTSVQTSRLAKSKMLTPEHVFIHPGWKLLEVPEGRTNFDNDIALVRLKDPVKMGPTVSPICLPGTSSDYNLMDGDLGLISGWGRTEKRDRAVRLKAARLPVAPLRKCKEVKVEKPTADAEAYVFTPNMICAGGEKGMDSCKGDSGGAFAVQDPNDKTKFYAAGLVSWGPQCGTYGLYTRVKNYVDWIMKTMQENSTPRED
Test: C1s enzyme assay (chromogenic substrate Pefa-C1E, decrease in Vmax)
Assay type: biochemical
Details: Table 6, effect of posttranslational modifications on BD001 activity
Description: C1s enzyme assays were performed in 96 well plates preincubated in the assay buffer for 30 minutes at room temperature. Activated human C1s (Calbiochem-Novabiochem Corporation; San Diego, Calif.); final assay concentration: 1.25 μg/ml), was incubated with samples in 50 mM Tris-HCl (pH 8) that contained 116 mM sodium chloride and 0.05% Polysorbate 80. The chromogenic substrate, Pefa-C1E (Centerchem, Inc.; Stamford, Conn.; final assay concentration: 0.4 mM), was added to the assay wells and the plate was read at 405 nm, 37° C., for 30 minutes at 20 second intervals on a SPECTRAmax PLUS plate reader (Molecular Devices Corporation; Sunnyvale, Calif.). Inhibition was determined as a decrease in Vmax, which is calculated as the maximum Δ milli-absorbance units/min over the assay period.
Three types of post-translational modifications have been identified in BD001: (1) glycosylation at Asn^23 consisting of a fucosylated complex-type core; (2) sulfation of at least one of Tyr^117, Tyr^119, and Tyr^121; and (3) proteolytic cleavage after Arg^65. The first two modifications have been identified in native BD001 as well as recombinant BD001 expressed in Baculovirus. The third modification is seen in a fraction of the recombinant BD001 expressed in Baculovirus. […] The identity of each species was verified using mass spectroscopy, and protein concentrations were measured using absorbance at 280 nm. […]

B1: BD001 isolated from tissue: native leech protein BD001 (SEQ ID NO:1) isolated from the salivary complexes of the leech; inhibits C1s (protein, listed as Haementaria ghilianii)
chain: AKKKLPKCQKQEDCGSWDLKCNNVTKKCECRNQVCGRGCPKERYQRDKYGCRKCLCKGCDGFKCRLGCTYGFKTDKKGCEAFCTCNTKETACVNIWCTDPYKCNPESGRCEDPNEEYEYDYE
modifications: native, isolated from leech
Q: With B1 as the molecule, how does the IC50 read?
A: 4 nM and 4.7 nM
